Experimental data taken from paper doi:10.1101/2024.05.16.594476 (bioRxiv, 2024).

B1: Mtb RNAP β subunit (natural protein)
chain: MLEGCILADSRQSKTAASPSPSRPQSSSNNSVPGAPNRVSFAKLREPLEVPGLLDVQTDSFEWLIGSPRWRESAAERGDVNPVGGLEEVLYELSPIEDFSGSMSLSFSDPRFDDVKAPVDECKDKDMTYAAPLFVTAEFINNNTGEIKSQTVFMGDFPMMTEKGTFIINGTERVVVSQLVRSPGVYFDETIDKSTDKTLHSVKVIPSRGAWLEFDVDKRDTVGVRIDRKRRQPVTVLLKALGWTSEQIVERFGFSEIMRSTLEKDNTVGTDEALLDIYRKLRPGEPPTKESAQTLLENLFFKEKRYDLARVGRYKVNKKLGLHVGEPITSSTLTEEDVVATIEYLVRLHEGQTTMTVPGGVEVPVETDDIDHFGNRRLRTVGELIQNQIRVGMSRMERVVRERMTTQDVEAITPQTLINIRPVVAAIKEFFGTSQLSQFMDQNNPLSGLTHKRRLSALGPGGLSRERAGLEVRDVHPSHYGRMCPIETPEGPNIGLIGSLSVYARVNPFGFIETPYRKVVDGVVSDEIVYLTADEEDRHVVAQANSPIDADGRFVEPRVLVRRKAGEVEYVPSSEVDYMDVSPRQMVSVATAMIPFLEHDDANRALMGANMQRQAVPLVRSEAPLVGTGMELRAAIDAGDVVVAEESGVIEEVSADYITVMHDNGTRRTYRMRKFARSNHGTCANQCPIVDAGDRVEAGQVIADGPCTDDGEMALGKNLLVAIMPWEGHNYEDAIILSNRLVEEDVLTSIHIEEHEIDARDTKLGAEEITRDIPNISDEVLADLDERGIVRIGAEVRDGDILVGKVTPKGETELTPEERLLRAIFGEKAREVRDTSLKVPHGESGKVIGIRVFSREDEDELPAGVNELVRVYVAQKRKISDGDKLAGRHGNKGVIGKILPVEDMPFLADGTPVDIILNTHGVPRRMNIGQILETHLGWCAHSGWKVDAAKGVPDWAARLPDELLEAQPNAIVSTPVFDGAQEAELQGLLSCTLPNRDGDVLVDADGKAMLFDGRSGEPFPYPVTVGYMYIMKLHHLVDDKIHARSTGPYSMITQQPLGGKAQFGGQRFGEMECWAMQAYGAAYTLQELLTIKSDDTVGRVKVYEAIVKGENIPEPGIPESFKVLLKELQSLCLNVEVLSSDGAAIELREGEDEDLERAAANLGINLSRNESASVEDLA
B2: Mtb GlnR, the nitrogen metabolism regulator (natural protein)
chain: MLELLLLTSELYPDPVLPALSLLPHTVRTAPAEASSLLEAGNADAVLVDARNDLSSGRGLCRLLSSTGRSIPVLAVVSEGGLVAVSADWGLDEILLLSTGPAEIDARLRLVVGRRGDLADQESLGKVSLGELVIDEGTYTARLRGRPLDLTYKEFELLKYLAQHAGRVFTRAQLLHEVWGYDFFGGTRTVDVHVRRLRAKLGPEHEALIGTVRNVGYKAVRPARGRPPAADPDDEDADPGRDGMQEPLVDPLRSQ
B3: Mtb RNAP σ^A (natural protein)
chain: MAATKASTATDEPVKRTATKSPAASASGAKTGAKRTAAKSASGSPPAKRATKPAARSVKPASAPQDTTTSTIPKRKTRAAAKSAAAKAPSARGHATKPRAPKDAQHEAATDPEDALDSVEELDAEPDLDVEPGEDLDLDAADLNLDDLEDDVAPDADDDLDSGDDEDHEDLEAEAAVAPGQTADDDEEIAEPTEKDKASGDFVWDEDESEALRQARKDAELTASADSVRAYLKQIGKVALLNAEEEVELAKRIEAGLYATQLMTELSERGEKLPAAQRRDMMWICRDGDRAKNHLLEANLRLVVSLAKRYTGRGMAFLDLIQEGNLGLIRAVEKFDYTKGYKFSTYATWWIRQAITRAMADQARTIRIPVHMVEVINKLGRIQRELLQDLGREPTPEELAKEMDITPEKVLEIQQYAREPISLDQTIGDEGDSQLGDFIEDSEAVVAVDAVSFTLLQDQLQSVLDTLSEREAGVVRLRFGLTDGQPRTLDEIGQVYGVTRERIRQIESKTMSKLRHPSRSQVLRDYLD
B4: Mtb RNAP α subunit (natural protein)
chain: MLISQRPTLSEDVLTDNRSQFVIEPLEPGFGYTLGNSLRRTLLSSIPGAAVTSIRIDGVLHEFTTVPGVKEDVTEIILNLKSLVVSSEEDEPVTMYLRKQGPGEVTAGDIVPPAGVTVHNPGMHIATLNDKGKLEVELVVERGRGYVPAVQNRASGAEIGRIPVDSIYSPVLKVTYKVDATRVEQRTDFDKLILDVETKNSISPRDALASAGKTLVELFGLARELNVEAEGIEIGPSPAEADHIASFALPIDDLDLTVRSYNCLKREGVHTVGELVARTESDLLDIRNFGQKSIDEVKIKLHQLGLSLKDSPPSFDPSEVAGYDVATGTWSTEGAYDEQDYAETEQL

Experiments:
[1] = molecular target: T1, Mtb PhoP, phosphorylated with acetyl phosphate (AcP) (Mycobacterium tuberculosis, UniProt P71814 1-247); test: […]
[2] = molecular target: T1, Mtb PhoP, phosphorylated with acetyl …; test: cryo-EM structure
Mtb RNAP β subunit = molecular target: B1; test: cryo-EM structure
Mtb RNAP α subunit = molecular target: B4; test: cryo-EM structure
Mtb RNAP σ^A = molecular target: B3; test: cryo-EM structure

Binder | binding result [1] | binding result [2] | binding result (Mtb RNAP β subunit) | binding result (Mtb RNAP α subunit) | binding result (Mtb RNAP σ^A)
B1 | binds | – | – | – | –
B2 | – | binds | binds | binds | binds
B3 | binds | – | – | – | –
B4 | binds | – | – | – | –
